# Source: US11433139B2, “Peptide vaccines against interleukin-31” (Zoetis Services LLC, priority 2018, dated 2022)
# T1: canine IL-31 (Canis lupus familiaris, UniProt A0A8I3S3D1)
# T1 construct: made in house; host or cells: CHO cells (CHROMOS ACE system)
# T1 sequence (A0A8I3S3D1 24-159): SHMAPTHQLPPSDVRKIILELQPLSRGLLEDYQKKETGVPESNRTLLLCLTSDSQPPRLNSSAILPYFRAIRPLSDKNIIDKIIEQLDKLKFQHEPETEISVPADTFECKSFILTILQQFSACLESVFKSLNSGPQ
# Experiments:
# [1] = system: equine IL-31; test: Biacore binding, single test concentration of antibody, equine IL-31 surface
# Chain of equine IL-31 (as listed by the source): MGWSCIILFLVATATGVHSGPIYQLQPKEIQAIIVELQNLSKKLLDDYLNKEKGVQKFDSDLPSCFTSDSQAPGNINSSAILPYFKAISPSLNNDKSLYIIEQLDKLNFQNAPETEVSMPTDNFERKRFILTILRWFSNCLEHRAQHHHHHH
# Experimental: (§1) For the indirect ELISA, binding (ELISA OD) to wildtype feline IL-31 and a feline IL-31 15H05 mutant which had mutations in the monoclonal antibody 15H05 epitope region was assessed. To confirm binding, biacore analysis was performed using canine, feline, equine, human, the feline 15H05 mutant, and feline 11E12 mutant IL-31 proteins as surfaces and a single test concentration of antibody. The feline IL-31 11E12 mutant had mutations in the monoclonal antibody 11E12 epitope region.
# (§2) For the indirect ELISA method, antibody binding to wildtype and feline IL-31 15H05 mutant proteins was assessed. […] In comparison, the 11E12 antibody bound to the wild-type feline IL-31 and its binding was not impacted by the mutations in the 15H05 epitope region as evidenced by the data in FIG. 4. To confirm binding, biacore analysis was performed using canine, feline, equine, human, feline 15H05 mutant, and feline 11E12 mutant IL-31 proteins as surfaces and a single test concentration of antibody. Similar to ELISA observations, all antibodies tested bound to wildtype feline IL-31. In agreement with the data described above in this section, mouse antibodies 11 E12 and 15H05 both bound to canine and feline IL-31 surfaces. […] From this group of nine fully canine antibodies, only ZIL1 and ZIL9 cross-reacted with equine IL-31. Of note, antibody 15H05 was the only one of all assayed herein that bound to canine, feline, and equine IL-31 indicating some level of epitope conservation across the three species. In contrast, none of the antibodies described herein bound to human IL-31. Additional biacore surfaces were used to verify ELISA observations showing differential binding of antibodies to wildtype feline IL-31 and two proteins with mutations in the 15H05 (15H05 mutant) or 11 E12 (11E12 mutant) epitopes. […] Differing results can be attributed to differences in the two assay methodologies.
# [2] = system: feline 15H05 mutant IL-31; test: Biacore binding, single test concentration of antibody, feline 15H05 mutant IL-31 surface
# Experimental: as §1, §2
# [3] = system: feline IL-31 11E12 mutant; test: Indirect ELISA, binding to feline IL-31 11E12 mutant; details: compared with wildtype
# Chain of feline IL-31 11E12 mutant (as listed by the source, change not shown): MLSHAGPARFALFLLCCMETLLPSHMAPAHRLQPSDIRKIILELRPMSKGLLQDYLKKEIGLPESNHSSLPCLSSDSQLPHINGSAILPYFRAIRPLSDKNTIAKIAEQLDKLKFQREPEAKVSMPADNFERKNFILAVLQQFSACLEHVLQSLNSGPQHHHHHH
# Text: To determine the impact of mAbs 11E12 and 15H05 ability to bind these mutant forms of feline IL-31, an indirect ELISA was run using the mutants directly coated on to an immunoassay plate. […] The minor attenuation of mAb 15H05s binding to the 11E12 mutant is likely due to translational effects of the mutations from movement of the two front helices effecting the 15H05 binding site. The mutations designed to affect mAb 15H05s binding (mutant 15H05) show a complete loss of mAb 1505s ability to bind this IL-31 mutant by ELISA. Unlike the 11E12 mutant, the changes in the random coil recognized by mAb 15H05 (mutant 15H05) had no impact on mAb 11E12 binding further supporting the distinction between the two epitopes (FIG. 6C).
# [4] = molecular target: T1, canine IL-31; test: Inhibition of canine IL-31 induced pSTAT3 signaling in canine DH-82 and feline FCWF4 cells; assay type: cell-based
# Summary of the method: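 DH-82 cells primed with canine IFN-γ 10 ng/mL for 24 h, FCWF4 with feline IFN-γ 125 ng/mL for 96 h, then serum-starved 2 h. mAb pre-incubated 1 h with 1 μg/mL canine or 0.2 μg/mL feline IL-31, cells stimulated 5 min; pSTAT3 by AlphaLISA SureFire, IC50 as half-maximal signalling reduction.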
# [5] = system: canine IL-31; test: Competition binding assessment using Biacore, canine IL-31 surface; details: sequential addition of 15H05 and 11E12, Biacore
# Experimental: To further characterize the IL-31 epitopes bound by mAbs 15H05 and 11 E12, blocking experiments were performed using biacore where the surface containing the IL-31 protein was generated followed by sequential addition of antibodies. FIGS. 7A and 7B show the relative binding of each antibody to IL-31 following capture of 11E12 or 15H05. The columns labeled HBS-EP (assay buffer) indicate the maximum signal obtained from each antibody binding to the IL-31 surface alone without competition. […] The sensograms related to FIG. 7A show the disassociation kinetics of both antibodies are very slow on this newly formed biacore surface therefore no additional occupation of binding sites can occur with addition of the same antibody (data not shown).
molecule,measurement,setting,value
"15H05: mouse anti IL-31 monoclonal antibody, VH SEQ ID NO: 67, VL SEQ ID NO: 69 (antibody, listed as Mus musculus, V domains shown) VH: QVQLQQSAAELARPGASVKMSCKTSGYTFTSYTIHWIKQRPGQGLEWIGNINPTSGYTENNQRFKDKTTLTVDRSSNTAYLQLHSLTSEDSAVYFCARWGFKYDGEWSFDVWGAGTTVTVSS VL: DIQMNQSPSSLSASLGDTITVTCRASQGISIWLSWYQQKPGNIPKVLINKASNLHIGVPPRFSGSGSGTHFTLTITSLQPEDIATYYCLQSQTYPLTFGGGTKLEIN",binding to equine IL-31 (Biacore),[1],bound
same,binding to feline 15H05 mutant IL-31 (Biacore),[2],did not bind
same,binding to feline IL-31 11E12 mutant (ELISA),[3],partially attenuated
same,blocking of canine IL-31 signaling in canine cells,"[4]; canine IL-31, canine cells",capable of blocking canine IL-31 signaling
same,blocking of canine IL-31 signaling in feline cells,"[4]; canine IL-31, feline cells",capable of blocking canine IL-31 signaling
same,competition binding on canine IL-31,[5],capable of binding to canine IL-31 in the presence of one another
